Measured values: paper PMC2712960

How the values were obtained:
[1] = target: b6f complex (monomer of 140 kD) (C. reinhardtii (endogenous)) (UniProt P23577); test: native gel or EMSA
[2] = target: b6f complex with cytochrome b6 C35V (C. reinhardtii (endogenous)) (UniProt P23577); test: native gel or EMSA

| Substance | stoichiometry N [1] | stoichiometry N [2] |
| --- | --- | --- |
| b6f complex (monomer of 140 kD) (from UniProt P23577 32-317; Q00471 1-215; P23230 1-160) | 2 | – |
| b6f complex with cytochrome b6 C35V (from UniProt P23577 32-317; Q00471 1-215; P23230 1-160) | – | 2 |
